Data published in article doi:10.1101/2025.08.19.670962 (2025).

B1: JIP3-GFP [not stated] / TMEM55B (in HEK293 wild type cells, Figure 4) [not stated] (parent complex)
chain 1: MMEIQMDEGGGVVVYQDDYCSGSVMSERVSGLAGSIYREFERLIHCYDEEVVKELMPLVVNVLENLDSVLSENQEHEVELELLREDNEQLLTQYEREKALRRQAEEKFIEFEDALEQEKKELQIQVEHYEFQTRQLELKAKNYADQISRLEERESEMKKEYNALHQRHTEMIQTYVEHIERSKMQQVGGNSQTESSLPGRRKERPTSLNVFPLADGTVRAQIGGKLVPAGDHWHLSDLGQLQSSSSYQCPQDEMSESGQSSAAATPSTTGTKSNTPTSSVPSAAVTPLNESLQPLGDYGVGSKNSKRAREKRDSRNMEVQVTQEMRNVSIGMGSSDEWSDVQDIIDSTPELDMCPETRLDRTGSSPTQGIVNKAFGINTDSLYHELSTAGSEVIGDVDEGADLLGEFSVRDDFFGMGKEVGNLLLENSQLLETKNALNVVKNDLIAKVDQLSGEQEVLRGELEAAKQAKVKLENRIKELEEELKRVKSEAIIARREPKEEAEDVSSYLCTESDKIPMAQRRRFTRVEMARVLMERNQYKERLMELQEAVRWTEMIRASREHPSVQEKKKSTIWQFFSRLFSSSSSPPPAKRPYPSVNIHYKSPTTAGFSQRRNHAMCPISAGSRPLEFFPDDDCTSSARREQKREQYRQVREHVRNDDGRLQACGWSLPAKYKQLSPNGGQEDTRMKNVPVPVYCRPLVEKDPTMKLWCAAGVNLSGWRPNEDDAGNGVKPAPGRDPLTCDREGDGEPKSAHTSPEKKKAKELPEMDATSSRVWILTSTLTTSKVVIIDANQPGTVVDQFTVCNAHVLCISSIPAASDSDYPPGEMFLDSDVNPEDPGADGVLAGITLVGCATRCNVPRSNCSSRGDTPVLDKGQGEVATIANGKVNPSQSTEEATEATEVPDPGPSEPETATLRPGPLTEHVFTDPAPTPSSGPQPGSENGPEPDSSSTRPEPEPSGDPTGAGSSAAPTMWLGAQNGWLYVHSAVANWKKCLHSIKLKDSVLSLVHVKGRVLVALADGTLAIFHRGEDGQWDLSNYHLMDLGHPHHSIRCMAVVYDRVWCGYKNKVHVIQPKTMQIEKSFDAHPRRESQVRQLAWIGDGVWVSIRLDSTLRLYHAHTHQHLQDVDIEPYVSKMLGTGKLGFSFVRITALLVAGSRLWVGTGNGVVISIPLTETVVLHRGQLLGLRANKTSPTSGEGARPGGIIHVYGDDSSDRAASSFIPYCSMAQAQLCFHGHRDAVKFFVSVPGNVLATLNGSVLDSPAEGPGPAAPASEVEGQKLRNVLVLSGGEGYIDFRIGDGEDDETEEGAGDMSQVKPVLSKAERSHIIVWQVSYTPE
chain 2: not shown

Variants of: B1
Assay: co-immunoprecipitation (GFP IP, quantitative immunoblot); HEK293 wild type cells, lysed 24h post transfection; parent: 31; read off a plot

response [TMEM55B/GFP] | Variant
~10 | chain 1 A895L, chain 1 E897K
